Test results taken from paper PMC12319266, “The Highly Conserved Cys95 Residue of Fructose‐1,6‐Bisphosphatase 1 Mediates the pH‐Driven Structure and Activity of the Enzyme and Photosynthesis” (Plant, Cell & Environment, 2025).
Changes are numbered by the printed parent chain. Names may count otherwise.

B1: recombinant mature wild-type fructose-1,6-bisphosphatase 1 (cFBP1) of Arabidopsis (enzyme, Arabidopsis thaliana, UniProt P25851 60-417, looked up)
chain: AVAADAAETKTAARKKSGYELQTLTGWLLRQEMKGEIDAELTIVMSSISLACKQIASLVQRAGISNLTGVQGAVNIQGEDQKKLDVISNEVFSNCLRSSGRTGIIASEEEDVPVAVEESYSGNYVVVFDPLDGSSNIDAAVSTGSIFGIYSPNDECIVDDSDDISALGSEEQRCIVNVCQPGNNLLAAGYCMYSSSVIFVLTLGKGVFSFTLDPMYGEFVLTQENIEIPKAGRIYSFNEGNYQMWDDKLKKYIDDLKDPGPTGKPYSARYIGSLVGDFHRTLLYGGIYGYPRDAKSKNGKLRLLYECAPMSFIVEQAGGKGSDGHSRVLDIQPTEIHQRVPLYIGSTEEVEKLEKYLA
notes: Fructose-1,6-bisphosphatase 1, chloroplastic (cFBP1), Arabidopsis thaliana, gene At3g54050; ca. 40 kDa on SDS-PAGE; numbers count on: the mature protein; The number of chains depends on pH: tetramer at pH 7.0, dimer at pH 8.3, mainly dimer at pH 7.8 when fresh; Expressed from pDEST17, which to my knowledge adds an N-terminal His6; No step to cleave the tag is described; also called WT cFBP1; WT
B2: recombinant mature C95S variant of fructose-1,6-bisphosphatase 1 (cFBP1) of Arabidopsis (enzyme, Arabidopsis thaliana, UniProt P25851 60-417, looked up)
chain: B1 chain with C95S
notes: Fructose-1,6-bisphosphatase 1, chloroplastic (cFBP1), Arabidopsis thaliana, gene At3g54050; Cys95 replaced by Ser; numbers count on: the mature protein; The number of chains depends on pH: tetramer at pH 7.0, dimer at pH 8.3, mainly tetramer at pH 7.8; Expressed from pDEST17, which to my knowledge adds an N-terminal His6; No step to cleave the tag is described; also called C95S cFBP1; cFBP1 C95S

Assays:
[1] = target: the molecule itself; assay: SEC; Superdex 200 HR 10/30, 50 mM Tris pH 7.0/0.15 M NaCl, 0.3 mL/min; native mass against protein standards
[2] = target: the molecule itself; assay: SEC; Superdex 200 HR 10/30, 50 mM Tris pH 8.3/0.15 M NaCl, 0.3 mL/min; native mass against protein standards

Protein | stoichiometry N [1] | stoichiometry N [2]
B1 | 4 | 2
B2 | 4 | 2
